Measured values: the nanobody polyreactivity screen of Harvey et al. (2022)

Test: yeast display, Sf9 membrane polyspecificity reagent, FACS + sequencing; frameworks hold sequencing errors
How it was run: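 Galactose-induced (36–48 hours) yeast carrying a synthetic nanobody display library were exposed to 10% biotinylated, detergent-solubilized Sf9 membrane reagent at 4 °C for 1 hour. FACS followed streptavidin microbead enrichment, using low and high (top ~1%) gates for expression (anti-HA) and reagent binding (streptavidin). Colony PCR, MiSeq 2 × 250 sequencing and CDR-length filtering followed. Labels for polyreactivity reflect the gate of origin.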

Row | Sequence | polyreactivity (PSR sort gate)
1 | QVQLVESGGGLVQAGGSLRLSCAPSGRIYATYAMGWYRQAPGKDSELVAAISDSGGRTYYADSVKGRFTISRDNAKNTVYLQMKSLKPEVNAVYYCAAKNGDRYARGYWGQGTQVNVSS | high polyreactivity
2 | QVQLVESGGGLVQAGGSLRLSCAPSGRTFYINAMGWYRQAPGKEREFVAAITTSGGGTYYADSVKGRFTISRDNAKNTVYLQMNSLKPEDTAVYYCNTRSRRGKDGRYDYWGQGTQVTVSS | high polyreactivity
3 | QVQLVESGGGLVQAGGSLRLSCAPSGSIFDFNTMGWYRQAPGKERELVAAISQRTGRTYYADSVKGRFTISRDNAKNTVYLQMNSLKPEDTAVYYCARTDRRLGAHQGDYWGQGTQVTVSS | high polyreactivity
4 | QVQLVESGGGLVQAGGSLRLSCAPSGSIFGINARAWYRQAPGKERELVAAISSGGSTNNADSVKGRFTISRDNAKNTVYFQMNSLKPEDTAVYYCAARLYYVRYNYWGQGTQGTVSS | high polyreactivity
5 | QVQLVESGGGLVQAGGSLRLSCAPSGSIFQFYAMGWYRQAPGKESELVAGINTSGGSTYYADSVKGRFTISRDNAKNTVYLQMNSLKPEDTEVYYCMARSRYDTGRQRGYDYWGQGTQVTVSS | low polyreactivity
6 | QVQLVESGGGLVQAGGSLRLSCAPSGSIFRYYAMGWYRQAPGKERELVAAISWSGTSTYYADSVKGRFTISRDNAKNTVYLQMNSLKPEDTAVYYCNKVIPANIRRSYDYWGQGTQVTVSS | high polyreactivity
7 | QVQLVESGGGLVQAGGSLRLSCAPSGSIFSAYAMGWYRQAPGKERELVAAITRGTSTNYADSVKGRFTISRDNAKNTVYLQMNSLKPEDTAVYYCAAEYGWYYVNFYYWGQGTQVTVSS | low polyreactivity
8 | QVQLVESGGGLVQAGGSLRLSCAPSGSIVNRYALGWYRQAPGKEREFVAAITRRGGYTYYADSVKGRFTISRDNAKNSVYLPLNSLKPEDTAVYYCAAPFYYPAGLLYYENNYWRQGTQVTVSS | high polyreactivity
9 | QVQLVESGGGLVQAGGSLRLSCAPSGSTFFSKTMGWYRQAPWKERELVAAINDSGTSTYYADSVKRRFTISRDNSKKTVYLQMNSLKPEDTAVYYCAAYPSGWYDYWGQGTQVTVSS | low polyreactivity
10 | QVQLVESGGGLVQAGGSLRLSCAPSGSTFGYNDMGWYRQAPGKERELVAAIDTGVSTNYADSVKGRFTISRDNAMNTVYLQMNSLKPVDTAVYYLAKSGSAYWHSGWSVGFDYWGQGTQVTVSS | low polyreactivity
11 | QVQLVESGGGLVQAGGSLRLSCAPSGSTFIPNPMGWYRQAPGKERELVAAISRRGGSTNYADSVKGRFTISRDNAKNTVYLQMNSLKPEDTALYYCAAVSPRRYRYDYWGQGPQVTVSS | low polyreactivity
12 | QVQLVESGGGLVQAGGSLRLSCAPSGSTFRPYGMGWYRQAPCKETELVAAINSGDSTYYADSVKGRFTISSDNAKNTVYLQMNSLKPEDTAVYYCAAGYYIRGRYGYWGQATQVTVSS | high polyreactivity
13 | QVQLVESGGGLVQAGGSLRLSCAPSGSTFRRNTMGWYRQAPGKARELVAGISSSGGSTYYADSVKGRFTISRDNAKNTVYLQMNSLKPEDTAVYYCAARFYVSYVGYNYWGQGSQVTVSS | high polyreactivity
14 | QVQLVESGGGLVQAGGSLRLSCAPSGSTFRVYGMGWYRQAPGKETELVAVIRWRGGRTSYADSVKGRFTISRDNAKNTVYLQMNSLKPEDTAVYYCAAAYWNDWSQYDYWGQGTQVTVSS | high polyreactivity
15 | QVQLVESGGGLVQAGGSLRLSCAPSGSTFYPNAKGWYRQAPRKERELVAAISRSGGSTYYADSVKGRFTISRDNAKNTVYLQMNSLKPEDTAVYYCAADGRSPARYDYWGQGTQVTVSS | low polyreactivity
16 | QVQLVESGGGLVQAGGSLRLSCAPSGSTFYVNAMGWYRQAPGKEREFVAAITWNSGSTYYADSVKGRFTISRDNAKNTVYLQMNSLKPEDTAVYYCAADGYHYVTYLVSYGYWGQGTQVTVSS | low polyreactivity
17 | QVQLVESGGGLVQAGGSLRLSCAPSGSTFYYYAMGWYRQAPGKERELVAAITWSGGSTRYADSVKGRFTISRDNAKNTVYLQMKSLKPEDTAVYYCAAYYRKTGFEYWGQGSQVTVSS | high polyreactivity
18 | QVQLVESGGGLVQAGGSLRLSCAPSGSTLYFYAMGWYRQAPGKERELDADITWSGGSTYYADSVKGRFTISRDNAKNTVYLQMNSLKPEDTAVYYCNADDWSTYWYGYPGYVYWGQGTQVTVSS | high polyreactivity
19 | QVQLVESGGGLVQAGGSLRLSCAPSGSTYLSYAMGWYRQAPGKERELVAAITYSGGRTYYAESVKGRFTISRDNAKITVYLQMNSLKQEDTAVYYCAATGVFRDEYWGQGTQVTVSS | low polyreactivity
20 | QVQLVESGGGLVQAGGSLRLSCAPSGYIFEIYAMGWYSQEPGKERELVAAISTRGGRTYYADSVKGRFTISRDKAKNTVYLQMNSLKPEDTAVYYCAAGFPYKFTYVGGYNHWGQGTQVTVSS | low polyreactivity
21 | QVQLVESGGGLVQAGGSLRLSCAPSGYIIRQYAMGWYRQAPGKEREFVAAISQTGGSTYYADSVKGRFTISRDNAKNTVYLQMNSLKPEDTAVYYCAARYRGQRYRKLDYWGQGTQVTVSS | high polyreactivity
22 | QVQLVESGGGLVQAGGSLRLSCAPSGYTFGKYAMGWYRHAPVKERELVATIRSGGSTNYADSVKGRFTISRDNAKNTVYLQMNSLKPEDTAVYYCNKRYRYQYGYDFWGQGTQVTVSS | high polyreactivity

Row | Sequence | polyreactivity (PSR sort gate)
23 | QVQLVESGGGLVQAGGSLRLSCAPSVRIFGTNAMGWYRQAPGTERELVADITSGGSTNYADSVKGRFTISRDNAKNTVYLQMISLKPEDTAVYYCAADVIGDLRWYRDEYWGQGTQVTVSS | low polyreactivity
24 | QVQLVESGGGLVQAGGSLRLSCASSGFIFPLYAMGWYRKAPGKERELVAAITWRGDTTSYADSVKGRFTISRDNAKNTVYLLMIRLKPEDNAVYYCNARGYFGWYAMDYWGQGTQVTVSS | high polyreactivity
25 | QVQLVESGGGLVQAGGSLRLSCASSGFTFDINAMGWYRQAPGKERELVAVITWNDGSTYYADSVKGRFTISRDNAKNTVYLQMNSLKPEDTAVYYCAAEYADSWSAFDWNYYYWGQGTQVTVSS | high polyreactivity
26 | QVQLVESGGGLVQAGGSLRLSCASSGFTFFRNAMGWYRQAPGKERELVAAISGSGGRTYYADSVKGRFTISRDNAKNTVYLQMNSLKLEDTAVYYCAAVPVDPGYDYWGQVTQVTVSS | high polyreactivity
27 | QVQLVESGGGLVQAGGSLRLSCASSGFTFHSYAMGWYRQAPGKERELVAAISTGGTRTYYADSVKGRFTISRDNAKNTVYLQMNSLKTEDTAVYYCAADLYRGVRIYSKYDSWGQGTQVTVSS | high polyreactivity
28 | QVQLVESGGGLVQAGGSLRLSCASSGFTFPYYAMGGYRQAPGKERELVAAISWGGGSTYYADSVKGRFTISRDNAKNTVYLQMNSLKPEDTAVYYCNAYEYLSAGYDYWGQGTQVTVSS | low polyreactivity
29 | QVQLVESGGGLVQAGGSLRLSCASSGFTFSRNVMGWYRQAPGKETELVADITLSGASTYYADSVKGRFTISRDNAKNPDYLQMNSLKPEDTAVYYCAADPYHWRWGWRHVYWGQGTQVTVSS | low polyreactivity
30 | QVQLVESGGGLVQAGGSLRLSCASSGFTFTLYARGWYRQAPGKEWELVAAINRSGGRTYYADSVKGRFTISRDNAKNTVYLQMNSLKPEDTAVYYCNKYPWPNYYDGEYDYWGQGTQVTVSS | high polyreactivity
31 | QVQLVESGGGLVQAGGSLRLSCASSGFTFYYNAMGWYRQAPGQERELVASITRSGGRTYYSDSVKGRFTISRDNAKNTVYLQMNSLKPEDTAVYYCARRYPGGYYWGQGTHVTVSS | high polyreactivity
32 | QVQLVESGGGLVQAGGSLRLSCASSGGIFYRNAMGWYRQAPGKERELVAVITSSGGSTYYADSVKGRFTISRDNAKNTVYLQMNSLKPVDTAVYYCAAESVAAYYWGQGTQVTVSS | high polyreactivity
33 | QVQLVESGGGLVQAGGSLRLSCASSGIILYYYAMGWYRQAPGKERELVAAIDSGDSTDYADSVKGRFTISRDNAKNTVYLQMNSLKPEDTAVYYCAADSPVDEYYHWGQGTQVTVSS | low polyreactivity
34 | QVQLVESGGGLVQAGGSLRLSCASSGITFRYYAMGWYRQAPGKERELVAAISDGGSTNYADSVKGRFTISRDNAKNTVYLQMNSLKPEDTAVYYCAADYRYLFDYWGQGTQVTVSS | high polyreactivity
35 | QVQLVESGGGLVQAGGSLRLSCASSGITLAGNAMGWYRQAPGKERELVAAISASGGRTSYADSVKGRFSISRDNAKNTVYLQKNSLKPEDTAVYYCNTRRYPTRPSYDYWGQGTQVTVSS | high polyreactivity
36 | QVQLVESGGGLVQAGGSLRLSCASSGLTFYKNAMGWYRQAPGKERELVAVISSSGGSTYYADSVKGRFTISRDNAKNTVYLQMNSLKPEDTAVYYGGRDLYTEYRWGRLTYDYWGHGTQVTVSS | low polyreactivity
37 | QVQLVESGGGLVQAGGSLRLSCASSGNTFERYAMGWYRQAPGKERELVAAITSSGGSTYYADSVKGRFTISRDNAKNTVYLQMNSLKPEDTAVYYCAASWRPRFYWGQGTQVTVSS | high polyreactivity
38 | QVQLVESGGGLVQAGGSLRLSCASSGRIFSDYAMGWYRQAPGKEMEFVAAISSSGGRTYYADSVKGRFTISRDNAKNTFYLQMNSLKQEDTAVYYCNRYYGYYNTGRYGYWGQGTQVTVSS | high polyreactivity
39 | QVQLVESGGGLVQAGGSLRLSCASSGRIFSVYTMGWYRQAPGKERELVAAISSGASTNYADSVKGRFTISRDNAMNTVYLQMKSLKPEDTAVYYCAAVSPRRYRYDYWGQGTQVTVSS | low polyreactivity
40 | QVQLVESGGGLVQAGGSLRLSCASSGRILYLNAMGWYRQAPGKERELVAAITLRAGSTRYADSVKGRFTISRDNAKNTVYLQMNSLKPEDTAVYYCAVAYYRNRMDYWVQGTQVTVSS | high polyreactivity
41 | QVQLVESGGGLVQAGGSLRLSCASSGRTFARNVMGWYRQAPGKERELVAAIRGSGGSTYYADSLKGRFTISRDNGKNTVYLQMNSLKTEDTAVYYCAADSSYTKRHSPTKLHFDYWGQGTQVTVSS | high polyreactivity
42 | QVQLVESGGGLVQAGGSLRLSCASSGRTFAYNAMGRYRQAPGKERELVAAITSSGGSTYYADSVKGRFTISRDNAKNTVYLQMNSLKPEDTAVYYCASYVRPDYYAIHVDYWGQGTQVTVSS | low polyreactivity
43 | QVQLVESGGGLVQAGGSLRLSCASSGRTFGFNVMGWYRQATGKERELVAAISWSGGSTYYADSVKGRFTISRDNAKNTVYLQMNILKPEDTAVYYCNAQYSQVNGYDYWGQGTQVTVSS | low polyreactivity
